Test results as given in paper PMC9482650, “Quantitative fragmentomics allow affinity mapping of interactomes” (Nature Communications, 2022).

Legend:
Experiment in all cases: holdup assay
Set-up in all cases: key: below the threshold = too weak to quantify, mostly under pKd 3.1 to 4
Inadl_8, Q8NI35 = molecular target: Inadl_8, Q8NI35
DLG3_2, Q92796 = molecular target: T1, DLG3_2, Q92796
T1 sequence (Q92796 221-321, limits assumed, looked up): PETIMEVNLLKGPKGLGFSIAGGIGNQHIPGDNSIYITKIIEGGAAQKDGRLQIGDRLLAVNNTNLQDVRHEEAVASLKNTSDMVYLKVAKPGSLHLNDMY

IL16_4, Q14005 = molecular target: IL16_4, Q14005
IL16_4, Q14005, sequence (Q14005 1229-1329): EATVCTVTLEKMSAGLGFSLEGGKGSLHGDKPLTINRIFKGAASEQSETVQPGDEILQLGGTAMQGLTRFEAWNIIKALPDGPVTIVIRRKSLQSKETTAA

DLG5_1, Q8TDM6 = molecular target: DLG5_1, Q8TDM6
DLG5_1, Q8TDM6, sequence (Q8TDM6 617-713): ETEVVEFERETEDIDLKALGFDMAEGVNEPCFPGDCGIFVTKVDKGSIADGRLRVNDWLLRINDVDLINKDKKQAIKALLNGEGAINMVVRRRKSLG

ARHGAP21, Q5T5U3 = molecular target: T2, ARHGAP21, Q5T5U3
T2 sequence (Q5T5U3 45-169, limits assumed, looked up): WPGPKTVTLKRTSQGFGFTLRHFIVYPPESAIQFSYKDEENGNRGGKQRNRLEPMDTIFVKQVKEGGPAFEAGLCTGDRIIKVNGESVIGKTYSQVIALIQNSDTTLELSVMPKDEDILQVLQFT

MPP6, Q9NZW5 = molecular target: T3, MPP6, Q9NZW5
T3 sequence (Q9NZW5 125-219, limits assumed, looked up): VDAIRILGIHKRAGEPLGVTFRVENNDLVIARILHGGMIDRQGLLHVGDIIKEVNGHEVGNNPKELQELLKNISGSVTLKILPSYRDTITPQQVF

NHERF2_2, Q15599 = molecular target: NHERF2_2, Q15599
NHERF2_2, Q15599, sequence (Q15599 142-238): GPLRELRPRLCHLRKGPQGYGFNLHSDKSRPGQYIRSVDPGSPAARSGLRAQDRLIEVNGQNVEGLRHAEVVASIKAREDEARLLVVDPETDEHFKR

TJP1_2, Q07157 = molecular target: TJP1_2, Q07157
TJP1_2, Q07157, sequence (Q07157 181-274): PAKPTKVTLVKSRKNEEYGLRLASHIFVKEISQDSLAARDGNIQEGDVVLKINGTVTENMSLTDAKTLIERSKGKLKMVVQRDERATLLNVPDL

IL16_1, Q14005 = molecular target: IL16_1, Q14005
IL16_1, Q14005, sequence (Q14005 210-306): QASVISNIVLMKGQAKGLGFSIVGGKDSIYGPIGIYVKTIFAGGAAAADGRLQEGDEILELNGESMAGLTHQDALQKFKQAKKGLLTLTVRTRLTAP

PDZRN3_1, Q9UPQ7 = molecular target: T4, PDZRN3_1, Q9UPQ7
T4 sequence (Q9UPQ7 244-349, limits assumed, looked up): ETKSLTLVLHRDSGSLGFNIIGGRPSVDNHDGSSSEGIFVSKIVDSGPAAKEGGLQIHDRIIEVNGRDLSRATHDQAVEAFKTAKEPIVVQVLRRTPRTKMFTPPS

PICK1, Q9NRD5 = molecular target: PICK1, Q9NRD5
PICK1, Q9NRD5, sequence (Q9NRD5 17-115): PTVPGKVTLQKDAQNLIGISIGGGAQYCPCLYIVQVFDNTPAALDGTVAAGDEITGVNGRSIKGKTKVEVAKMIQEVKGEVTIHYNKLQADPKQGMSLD

SIPA1L2, Q9P2F8 = molecular target: T5, SIPA1L2, Q9P2F8
T5 sequence (Q9P2F8 945-1036, limits assumed, looked up): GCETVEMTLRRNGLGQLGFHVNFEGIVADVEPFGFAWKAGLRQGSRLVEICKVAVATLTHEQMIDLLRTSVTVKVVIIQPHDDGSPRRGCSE

GORASP1, Q9BQQ3 = molecular target: GORASP1, Q9BQQ3
GORASP1, Q9BQQ3, sequence (Q9BQQ3 1-208): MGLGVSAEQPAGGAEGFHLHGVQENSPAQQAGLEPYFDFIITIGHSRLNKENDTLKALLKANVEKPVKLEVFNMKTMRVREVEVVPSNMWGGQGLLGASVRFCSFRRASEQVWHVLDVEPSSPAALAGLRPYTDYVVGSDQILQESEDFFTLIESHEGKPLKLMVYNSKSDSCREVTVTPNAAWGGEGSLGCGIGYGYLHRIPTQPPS

SHANK1, Q9Y566 = molecular target: T6, SHANK1, Q9Y566
T6 sequence (Q9Y566 658-767, limits assumed, looked up): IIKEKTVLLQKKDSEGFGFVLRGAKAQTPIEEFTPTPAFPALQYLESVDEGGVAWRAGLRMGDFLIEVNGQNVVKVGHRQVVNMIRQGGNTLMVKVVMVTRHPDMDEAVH

NHERF3_3, Q5T2W1 = molecular target: T7, NHERF3_3, Q5T2W1
T7 sequence (Q5T2W1 238-333, limits assumed, looked up): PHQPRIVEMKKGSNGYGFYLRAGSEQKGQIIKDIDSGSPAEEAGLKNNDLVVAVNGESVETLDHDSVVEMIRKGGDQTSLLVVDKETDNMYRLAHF

Inadl_2, Q8NI35 = molecular target: Inadl_2, Q8NI35
Inadl_2, Q8NI35, sequence (Q8NI35 238-335): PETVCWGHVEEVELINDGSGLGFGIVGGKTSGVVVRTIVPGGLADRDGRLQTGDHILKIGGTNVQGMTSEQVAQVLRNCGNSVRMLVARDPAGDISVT

RHPN1, Q8TCX5 = molecular target: T8, RHPN1, Q8TCX5
T8 sequence (Q8TCX5 508-602, limits assumed, looked up): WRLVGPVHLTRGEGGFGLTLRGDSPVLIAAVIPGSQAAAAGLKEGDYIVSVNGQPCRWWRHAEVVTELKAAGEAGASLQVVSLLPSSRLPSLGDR

MAST2, Q6P0Q8 = molecular target: MAST2, Q6P0Q8
MAST2, Q6P0Q8, sequence (Q6P0Q8 1099-1202): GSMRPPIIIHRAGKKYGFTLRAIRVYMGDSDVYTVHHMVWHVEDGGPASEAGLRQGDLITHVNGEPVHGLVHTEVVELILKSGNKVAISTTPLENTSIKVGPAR

GRIP2_5, Q9C0E4 = molecular target: GRIP2_5, Q9C0E4
GRIP2_5, Q9C0E4, sequence (Q9C0E4 544-642): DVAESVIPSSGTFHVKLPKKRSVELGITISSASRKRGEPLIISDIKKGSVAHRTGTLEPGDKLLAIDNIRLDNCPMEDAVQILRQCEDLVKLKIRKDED

NHERF4_4, Q86UT5 = molecular target: NHERF4_4, Q86UT5
NHERF4_4, Q86UT5, sequence (Q86UT5 464-550): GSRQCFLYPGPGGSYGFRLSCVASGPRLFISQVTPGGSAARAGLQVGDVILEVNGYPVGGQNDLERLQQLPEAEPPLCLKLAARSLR

MAST1, Q9Y2H9 = molecular target: MAST1, Q9Y2H9
MAST1, Q9Y2H9, sequence (Q9Y2H9 962-1065): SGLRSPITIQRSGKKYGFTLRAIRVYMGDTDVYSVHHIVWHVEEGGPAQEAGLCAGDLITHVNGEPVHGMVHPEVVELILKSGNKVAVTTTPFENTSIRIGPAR

LNX2_2, Q8N448 = molecular target: T9, LNX2_2, Q8N448
T9 sequence (Q8N448 334-432, limits assumed, looked up): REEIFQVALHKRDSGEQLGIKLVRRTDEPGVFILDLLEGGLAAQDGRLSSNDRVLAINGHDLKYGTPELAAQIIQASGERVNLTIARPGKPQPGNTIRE

PTPN3, P26045 = molecular target: PTPN3, P26045
PTPN3, P26045, sequence (P26045 505-587): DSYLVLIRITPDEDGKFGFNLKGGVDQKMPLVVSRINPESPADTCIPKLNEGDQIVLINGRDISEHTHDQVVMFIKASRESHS

LDB3, O75112 = molecular target: LDB3, O75112
LDB3, O75112, sequence (O75112 1-94): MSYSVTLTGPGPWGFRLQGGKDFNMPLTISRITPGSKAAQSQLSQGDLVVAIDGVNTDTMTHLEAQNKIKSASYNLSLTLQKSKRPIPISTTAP

ARHGEF11, O15085 = molecular target: T10, ARHGEF11, O15085
T10 sequence (O15085 42-136, limits assumed, looked up): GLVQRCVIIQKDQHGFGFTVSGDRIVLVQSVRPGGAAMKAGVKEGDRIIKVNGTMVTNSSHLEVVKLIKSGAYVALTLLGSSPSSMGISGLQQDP

PCLO, Q9Y6V0 = molecular target: T11, PCLO, Q9Y6V0
T11 sequence (Q9Y6V0 4491-4600, limits assumed, looked up): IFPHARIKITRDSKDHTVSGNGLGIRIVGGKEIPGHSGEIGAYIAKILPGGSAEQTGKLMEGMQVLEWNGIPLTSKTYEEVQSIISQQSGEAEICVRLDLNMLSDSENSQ

SNX27, Q96L92 = molecular target: SNX27, Q96L92
[1] = plain residues with an end cap or a label only (N-terminal biotin on a linker: ttds)
[2] = plain residues with an end cap or a label only (N-terminal biotin on a linker: ahx)

Inadl_8, Q8NI35, sequence (Q8NI35 1425-1530): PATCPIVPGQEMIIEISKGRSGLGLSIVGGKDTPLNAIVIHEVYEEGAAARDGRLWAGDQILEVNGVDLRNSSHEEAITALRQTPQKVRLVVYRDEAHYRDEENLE

B1: HPV35-E6, P27228 (peptide)
chain: SKPTRRETEV
- pKd (Inadl_8, Q8NI35; [1]): below the threshold
- pKd (DLG3_2, Q92796; [1]): 5.49
- pKd (IL16_4, Q14005; [1]): below the threshold
- pKd (DLG5_1, Q8TDM6; [1]): below the threshold
- pKd (ARHGAP21, Q5T5U3; [1]): below the threshold
- pKd (MPP6, Q9NZW5; [1]): below the threshold
- pKd (NHERF2_2, Q15599; [1]): below the threshold
- pKd (TJP1_2, Q07157; [1]): below the threshold
- pKd (IL16_1, Q14005; [1]): below the threshold
- pKd (PDZRN3_1, Q9UPQ7; [1]): 4.89
- pKd (PICK1, Q9NRD5; [1]): below the threshold
- pKd (SIPA1L2, Q9P2F8; [1]): below the threshold
- pKd (GORASP1, Q9BQQ3; [1]): below the threshold
- pKd (SHANK1, Q9Y566; [1]): below the threshold
- pKd (NHERF3_3, Q5T2W1; [1]): below the threshold
- pKd (Inadl_2, Q8NI35; [1]): below the threshold
- pKd (RHPN1, Q8TCX5; [1]): below the threshold
- pKd (MAST2, Q6P0Q8; [1]): 5.09
- pKd (GRIP2_5, Q9C0E4; [1]): below the threshold
- pKd (NHERF4_4, Q86UT5; [1]): below the threshold
- pKd (MAST1, Q9Y2H9; [1]): below the threshold
- pKd (LNX2_2, Q8N448; [1]): below the threshold
- pKd (PTPN3, P26045; [1]): 4.93
- pKd (LDB3, O75112; [1]): below the threshold
- pKd (ARHGEF11, O15085; [1]): 4.11
- pKd (PCLO, Q9Y6V0; [1]): below the threshold
- pKd (SNX27, Q96L92; [1]): 4.66

B2: KCTD3, Q9Y597 (peptide)
chain: SDSSGQEYSL
- pKd (Inadl_8, Q8NI35; [2]): below the threshold
- pKd (DLG3_2, Q92796; [2]): below the threshold
- pKd (IL16_4, Q14005; [2]): below the threshold
- pKd (DLG5_1, Q8TDM6; [2]): below the threshold
- pKd (ARHGAP21, Q5T5U3; [2]): below the threshold
- pKd (MPP6, Q9NZW5; [2]): 3.83
- pKd (NHERF2_2, Q15599; [2]): below the threshold
- pKd (TJP1_2, Q07157; [2]): below the threshold
- pKd (IL16_1, Q14005; [2]): below the threshold
- pKd (PDZRN3_1, Q9UPQ7; [2]): below the threshold
- pKd (PICK1, Q9NRD5; [2]): below the threshold
- pKd (SIPA1L2, Q9P2F8; [2]): below the threshold
- pKd (GORASP1, Q9BQQ3; [2]): below the threshold
- pKd (SHANK1, Q9Y566; [2]): below the threshold
- pKd (NHERF3_3, Q5T2W1; [2]): below the threshold
- pKd (Inadl_2, Q8NI35; [2]): below the threshold
- pKd (RHPN1, Q8TCX5; [2]): below the threshold
- pKd (MAST2, Q6P0Q8; [2]): 4.53
- pKd (GRIP2_5, Q9C0E4; [2]): below the threshold
- pKd (NHERF4_4, Q86UT5; [2]): below the threshold
- pKd (MAST1, Q9Y2H9; [2]): below the threshold
- pKd (LNX2_2, Q8N448; [2]): below the threshold
- pKd (PTPN3, P26045; [2]): 4.14
- pKd (LDB3, O75112; [2]): below the threshold
- pKd (ARHGEF11, O15085; [2]): 3.98
- pKd (PCLO, Q9Y6V0; [2]): below the threshold
- pKd (SNX27, Q96L92; [2]): below the threshold

B3: SHROOM4, Q9ULL8 (peptide)
chain: ESLLLGPSNF
- pKd (Inadl_8, Q8NI35; [2]): 3.57
- pKd (DLG3_2, Q92796; [2]): below the threshold
- pKd (IL16_4, Q14005; [2]): below the threshold
- pKd (DLG5_1, Q8TDM6; [2]): below the threshold
- pKd (ARHGAP21, Q5T5U3; [2]): below the threshold
- pKd (MPP6, Q9NZW5; [2]): below the threshold
- pKd (NHERF2_2, Q15599; [2]): below the threshold
- pKd (TJP1_2, Q07157; [2]): below the threshold
- pKd (IL16_1, Q14005; [2]): below the threshold
- pKd (PDZRN3_1, Q9UPQ7; [2]): below the threshold
- pKd (PICK1, Q9NRD5; [2]): below the threshold
- pKd (SIPA1L2, Q9P2F8; [2]): below the threshold
- pKd (GORASP1, Q9BQQ3; [2]): below the threshold
- pKd (SHANK1, Q9Y566; [2]): 3.53
- pKd (NHERF3_3, Q5T2W1; [2]): below the threshold
- pKd (Inadl_2, Q8NI35; [2]): below the threshold
- pKd (RHPN1, Q8TCX5; [2]): below the threshold
- pKd (MAST2, Q6P0Q8; [2]): below the threshold
- pKd (GRIP2_5, Q9C0E4; [2]): below the threshold
- pKd (NHERF4_4, Q86UT5; [2]): below the threshold
- pKd (MAST1, Q9Y2H9; [2]): below the threshold
- pKd (LNX2_2, Q8N448; [2]): below the threshold
- pKd (PTPN3, P26045; [2]): below the threshold
- pKd (LDB3, O75112; [2]): below the threshold
- pKd (ARHGEF11, O15085; [2]): below the threshold
- pKd (PCLO, Q9Y6V0; [2]): below the threshold
- pKd (SNX27, Q96L92; [2]): below the threshold

B4: HPV59-E6, Q81964 (peptide)
chain: QRQARSETLV
- pKd (Inadl_8, Q8NI35; [1]): below the threshold
- pKd (DLG3_2, Q92796; [1]): 5.17
- pKd (IL16_4, Q14005; [1]): below the threshold
- pKd (DLG5_1, Q8TDM6; [1]): below the threshold
- pKd (ARHGAP21, Q5T5U3; [1]): below the threshold
- pKd (MPP6, Q9NZW5; [1]): below the threshold
- pKd (NHERF2_2, Q15599; [1]): below the threshold
- pKd (TJP1_2, Q07157; [1]): below the threshold
- pKd (IL16_1, Q14005; [1]): below the threshold
- pKd (PDZRN3_1, Q9UPQ7; [1]): 4.22
- pKd (PICK1, Q9NRD5; [1]): 3.85
- pKd (SIPA1L2, Q9P2F8; [1]): below the threshold
- pKd (GORASP1, Q9BQQ3; [1]): below the threshold
- pKd (SHANK1, Q9Y566; [1]): below the threshold
- pKd (NHERF3_3, Q5T2W1; [1]): below the threshold
- pKd (Inadl_2, Q8NI35; [1]): below the threshold
- pKd (RHPN1, Q8TCX5; [1]): 3.94
- pKd (MAST2, Q6P0Q8; [1]): 5.03
- pKd (GRIP2_5, Q9C0E4; [1]): below the threshold
- pKd (NHERF4_4, Q86UT5; [1]): below the threshold
- pKd (MAST1, Q9Y2H9; [1]): 4.62
- pKd (LNX2_2, Q8N448; [1]): 5.04
- pKd (PTPN3, P26045; [1]): 4.4
- pKd (LDB3, O75112; [1]): below the threshold
- pKd (ARHGEF11, O15085; [1]): below the threshold
- pKd (PCLO, Q9Y6V0; [1]): below the threshold
- pKd (SNX27, Q96L92; [1]): 4.64
